According to article PMC5630374:

Test system: T1, His-CalR (Vibrio parahaemolyticus RIMD2210633), ORF:1a4fc32f
T1 sequence: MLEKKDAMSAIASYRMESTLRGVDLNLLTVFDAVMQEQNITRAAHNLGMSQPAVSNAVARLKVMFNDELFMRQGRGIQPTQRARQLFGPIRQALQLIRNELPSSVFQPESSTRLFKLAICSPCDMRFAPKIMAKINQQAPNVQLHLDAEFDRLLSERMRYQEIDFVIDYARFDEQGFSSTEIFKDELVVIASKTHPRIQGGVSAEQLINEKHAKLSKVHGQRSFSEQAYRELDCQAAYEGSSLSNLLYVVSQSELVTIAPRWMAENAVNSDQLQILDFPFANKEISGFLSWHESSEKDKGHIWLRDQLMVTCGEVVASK
Assay: DNase I footprinting
Details: 10 mM Tris-HCl pH 7.5, 50 mM NaCl, 1 mM MgCl2, 0.5 mM EDTA, 0.5 mM DTT, 10 mg/ml salmon sperm DNA (so in the source), room temperature, 20 min (EMSA) or 30 min (ToxR …)

With “CAGGAAACAGCTATGACCGGCTTATATTTATTCTACAGATGGACAGCAATAACGTTCCACGTACAACACGTAATTAACATAGTATTTAATTTTTAAGATAACACAATTCTAATTCTTCATCGCTTGTCGATATAAACCAAAATCCCACCATAATAGAATTTAATAACCGTTAATCTTTATATGCACCAGCACTCATTTGTAAGATTAGAAGCAAGGAGTCAATTCTGGGTTTCCGGCCAAAATATAATAACTAACAACCAAAATTGATAAACACTGGCCGTCGTTTTAC (double strand) [exsB promoter, footprint fragment]” the binding was “binds”.
